Source: publication doi:10.1101/2023.06.23.546255

Legend:
[1] = molecular target: _(FITC)…, fluorescently labeled high-affinity peptide; assay: fluorescence polarisation
[2] = molecular target: chicken Tapasin (chTapasin), luminal domain (chicken (Gallus gallus)); assay: NMR chemical shift perturbation
[3] = molecular target: chicken Tapasin (chTapasin), luminal domain (chicken (Gallus gallus)); assay: SPR

Substance	Kd [1] [µM]	lifetime of the complex [2] [ms]	Kd [3] [µM]
open B*37:01/chTapasin complex (empty) (from UniProt P61769 21-119)	0.0055		
open HLA-B*37:01 (G120C)/β2m (H31C), UV-irradiated (empty) (from UniProt P61769 21-119) (complex)		> 200	1.2
